# Results as given in IntAct's records for PubMed 31515488.
# B1: Calcium-binding and coiled-coil domain-containing protein 2 (Homo sapiens), Q13137 (parent)
# chain: MEETIKDPPTSAVLLDHCHFSQVIFNSVEKFYIPGGDVTCHYTFTQHFIPRRKDWIGIFRVGWKTTREYYTFMWVTLPIDLNNKSAKQQEVQFKAYYLPKDDEYYQFCYVDEDGVVRGASIPFQFRPENEEDILVVTTQGEVEEIEQHNKELCKENQELKDSCISLQKQNSDMQAELQKKQEELETLQSINKKLELKVKEQKDYWETELLQLKEQNQKMSSENEKMGIRVDQLQAQLSTQEKEMEKLVQGDQDKTEQLEQLKKENDHLFLSLTEQRKDQKKLEQTVEQMKQNETTAMKKQQELMDENFDLSKRLSENEIICNALQRQKERLEGENDLLKRENSRLLSYMGLDFNSLPYQVPTSDEGGARQNPGLAYGNPYSGIQESSSPSPLSIKKCPICKADDICDHTLEQQQMQPLCFNCPICDKIFPATEKQIFEDHVFCHSL
# B2: Scaffold protein ILK (Homo sapiens), Q13418 (parent)
# chain: MDDIFTQCREGNAVAVRLWLDNTENDLNQGDDHGFSPLHWACREGRSAVVEMLIMRGARINVMNRGDDTPLHLAASHGHRDIVQKLLQYKADINAVNEHGNVPLHYACFWGQDQVAEDLVANGALVSICNKYGEMPVDKAKAPLRELLRERAEKMGQNLNRIPYKDTFWKGTTRTRPRNGTLNKHSGIDFKQLNFLTKLNENHSGELWKGRWQGNDIVVKVLKVRDWSTRKSRDFNEECPRLRIFSHPNVLPVLGACQSPPAPHPTLITHWMPYGSLYNVLHEGTNFVVDQSQAVKFALDMARGMAFLHTLEPLIPRHALNSRSVMIDEDMTARISMADVKFSFQCPGRMYAPAWVAPEALQKKPEDTNRRSADMWSFAVLLWELVTREVPFADLSNMEIGMKVALEGLRPTIPPGISPHVCKLMKICMNEDPAKRPKFDMIVPILEKMQDK
# partner: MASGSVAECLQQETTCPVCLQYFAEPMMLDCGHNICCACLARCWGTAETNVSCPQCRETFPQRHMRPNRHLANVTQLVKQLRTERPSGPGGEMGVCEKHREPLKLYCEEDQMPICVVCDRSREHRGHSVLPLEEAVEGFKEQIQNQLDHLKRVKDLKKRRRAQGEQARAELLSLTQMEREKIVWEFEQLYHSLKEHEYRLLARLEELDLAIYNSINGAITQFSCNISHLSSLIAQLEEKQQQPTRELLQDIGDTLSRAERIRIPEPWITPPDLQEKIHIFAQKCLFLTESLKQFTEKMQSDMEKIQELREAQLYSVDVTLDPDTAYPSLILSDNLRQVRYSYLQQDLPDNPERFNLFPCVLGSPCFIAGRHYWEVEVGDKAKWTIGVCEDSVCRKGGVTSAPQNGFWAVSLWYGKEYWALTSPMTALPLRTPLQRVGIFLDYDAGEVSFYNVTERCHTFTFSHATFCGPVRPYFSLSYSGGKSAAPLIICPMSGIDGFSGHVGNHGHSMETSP
# B3: DCC-interacting protein 13-beta (Homo sapiens), Q8NEU8 (parent)
# chain: MPAVDKLLLEEALQDSPQTRSLLSVFEEDAGTLTDYTNQLLQAMQRVYGAQNEMCLATQQLSKQLLAYEKQNFALGKGDEEVISTLHYFSKVVDELNLLHTELAKQLADTMVLPIIQFREKDLTEVSTLKDLFGLASNEHDLSMAKYSRLPKKKENEKVKTEVGKEVAAARRKQHLSSLQYYCALNALQYRKQMAMMEPMIGFAHGQINFFKKGAEMFSKRMDSFLSSVADMVQSIQVELEAEAEKMRVSQQELLSVDESVYTPDSDVAAPQINRNLIQKAGYLNLRNKTGLVTTTWERLYFFTQGGNLMCQPRGAVAGGLIQDLDNCSVMAVDCEDRRYCFQITTPNGKSGIILQAESRKENEEWICAINNISRQIYLTDNPEAVAIKLNQTALQAVTPITSFGKKQESSCPSQNLKNSEMENENDKIVPKATASLPEAEELIAPGTPIQFDIVLPATEFLDQNRGSRRTNPFGETEDESFPEAEDSLLQQMFIVRFLGSMAVKTDSTTEVIYEAMRQVLAARAIHNIFRMTESHLMVTSQSLRLIDPQTQVSRANFELTSVTQFAAHQENKRLVGFVIRVPESTGEESLSTYIFESNSEGEKICYAINLGKEIIEVQKDPEALAQLMLSIPLTNDGKYVLLNDQPDDDDGNPNEHRGAESEA
# partner: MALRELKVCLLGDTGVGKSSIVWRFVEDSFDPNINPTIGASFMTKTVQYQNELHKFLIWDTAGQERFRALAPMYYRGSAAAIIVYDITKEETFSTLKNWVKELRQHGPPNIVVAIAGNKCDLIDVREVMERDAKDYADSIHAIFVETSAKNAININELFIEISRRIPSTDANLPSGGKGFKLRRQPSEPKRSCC
# Variants of: B1
# Conditions: with leg8_human LGALS8, O00214
# leg8_human LGALS8, O00214, sequence (O00214 whole entry): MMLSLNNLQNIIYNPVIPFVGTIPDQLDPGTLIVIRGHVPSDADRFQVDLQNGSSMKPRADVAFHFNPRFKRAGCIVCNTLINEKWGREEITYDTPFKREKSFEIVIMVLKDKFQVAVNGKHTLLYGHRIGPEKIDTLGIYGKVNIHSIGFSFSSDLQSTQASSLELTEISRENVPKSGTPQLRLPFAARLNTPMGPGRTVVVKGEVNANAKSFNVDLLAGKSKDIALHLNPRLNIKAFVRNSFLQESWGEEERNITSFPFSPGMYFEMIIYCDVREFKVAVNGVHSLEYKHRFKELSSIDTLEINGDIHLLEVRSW
row,effect of a mutation on the interaction,Variant
1,with no effect,P389A
2,with no effect,E222K
3,with no effect,T273A
4,with no effect,T255A

# Variants of: B1
# Conditions: with tcl1a_human TCL1A
row,effect of a mutation on the interaction,Variant
1,with no effect,P389A
2,with no effect,E222K
3,with no effect,T273A

# Variants of: B1
# Conditions: with dus12_human DUSP12, Q9UNI6
# dus12_human DUSP12, Q9UNI6, sequence (Q9UNI6 whole entry): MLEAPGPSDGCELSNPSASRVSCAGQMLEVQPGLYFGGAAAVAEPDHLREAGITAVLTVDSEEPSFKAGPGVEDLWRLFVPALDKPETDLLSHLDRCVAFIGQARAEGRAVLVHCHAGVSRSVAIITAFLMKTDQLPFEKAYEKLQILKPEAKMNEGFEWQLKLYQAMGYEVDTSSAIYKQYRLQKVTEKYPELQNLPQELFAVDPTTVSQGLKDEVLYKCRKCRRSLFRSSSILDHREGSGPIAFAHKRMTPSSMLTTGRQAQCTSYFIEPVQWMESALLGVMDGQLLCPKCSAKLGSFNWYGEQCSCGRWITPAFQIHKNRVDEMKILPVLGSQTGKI
row,effect of a mutation on the interaction,Variant
1,with no effect,P389A
2,with no effect,T273A

# Variants of: B1
# Conditions: with smrd1_human SMARCD1, Q96GM5
# smrd1_human SMARCD1, Q96GM5, sequence (Q96GM5 whole entry): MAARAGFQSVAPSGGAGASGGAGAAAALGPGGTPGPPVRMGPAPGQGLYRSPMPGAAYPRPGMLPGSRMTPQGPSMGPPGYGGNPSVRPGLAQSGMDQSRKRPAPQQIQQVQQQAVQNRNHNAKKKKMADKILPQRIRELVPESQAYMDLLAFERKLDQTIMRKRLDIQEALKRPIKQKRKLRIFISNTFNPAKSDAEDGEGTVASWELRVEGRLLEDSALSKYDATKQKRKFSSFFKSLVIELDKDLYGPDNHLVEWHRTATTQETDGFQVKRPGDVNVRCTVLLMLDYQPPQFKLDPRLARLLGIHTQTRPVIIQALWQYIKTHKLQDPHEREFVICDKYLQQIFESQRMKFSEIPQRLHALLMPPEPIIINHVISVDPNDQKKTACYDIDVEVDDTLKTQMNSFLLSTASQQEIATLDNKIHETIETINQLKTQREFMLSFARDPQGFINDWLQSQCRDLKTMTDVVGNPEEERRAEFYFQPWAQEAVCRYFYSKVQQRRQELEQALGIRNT
row,effect of a mutation on the interaction,Variant
1,with no effect,E222K

# Variants of: B1
# Conditions: with tekt3_human TEKT3, Q9BXF9
# tekt3_human TEKT3, Q9BXF9, sequence (Q9BXF9 whole entry): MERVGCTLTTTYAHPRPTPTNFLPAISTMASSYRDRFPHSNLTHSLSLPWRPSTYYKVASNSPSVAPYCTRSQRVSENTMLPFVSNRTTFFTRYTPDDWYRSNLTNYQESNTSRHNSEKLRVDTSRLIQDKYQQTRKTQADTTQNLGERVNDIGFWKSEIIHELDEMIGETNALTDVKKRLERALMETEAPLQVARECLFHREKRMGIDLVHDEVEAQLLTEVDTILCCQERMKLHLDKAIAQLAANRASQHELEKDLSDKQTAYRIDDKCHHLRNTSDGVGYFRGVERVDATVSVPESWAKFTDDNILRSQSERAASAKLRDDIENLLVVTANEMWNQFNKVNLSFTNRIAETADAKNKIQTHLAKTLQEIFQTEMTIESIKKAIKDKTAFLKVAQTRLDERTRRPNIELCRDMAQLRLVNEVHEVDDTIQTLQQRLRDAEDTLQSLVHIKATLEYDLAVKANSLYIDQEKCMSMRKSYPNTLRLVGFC
row,effect of a mutation on the interaction,Variant
1,with no effect,V248A

# Variants of: B2
# Conditions: with tri27_human TRIM27, P14373
row,effect of a mutation on the interaction,Variant
1,with no effect,V340G

# Variants of: B3
# Conditions: with rb22a_human RAB22A
row,effect of a mutation on the interaction,Variant
1,with no effect,K70R
